Laboratory results from paper PMC12077210, “Di-HAMP domains of a cytoplasmic chemoreceptor modulate nucleoid array formation and downstream signaling” (mBio, 2024).
Blank lines part the entries; values can stand above or below the molecule they belong to.

What was measured:
[1] = target: FrzCD^ΔH1ΔH2 (Myxococcus xanthus) (UniProt P43500); assay: SEC-MALS; no DNA; Superdex 200 Increase 10/300, 50 mM NaCl, 50 mM Tris pH 8.0, about 25°C; 100 μL injected at 45 and 150 μM (FrzCD), 70 and 200 μM (ΔMA), 25 μM (ΔH1ΔH2), 25 and 65 μM (ΔH2), 25 μM (ΔH1)
[2] = target: FrzCD^ΔMA (Myxococcus xanthus) (UniProt P43500); assay: SEC-MALS; with 35 bp DNA in the injected sample: 70 μM FrzCD with 30 μM DNA; 200 μM FrzCD with 100 μM DNA; 200 μM ΔMA with 100 μM DNA; 100 μM ΔH2 with 50 μM DNA
[3] = target: FrzCD^ΔMA (Myxococcus xanthus) (UniProt P43500); assay: SEC-MALS; no DNA; Superdex 200 Increase 10/300, 50 mM NaCl, 50 mM Tris pH 8.0, about 25°C; 100 μL injected at 45 and 150 μM (FrzCD), 70 and 200 μM (ΔMA), 25 μM (ΔH1ΔH2), 25 and 65 μM (ΔH2), 25 μM (ΔH1)
[4] = target: FrzCD^ΔH2 (Myxococcus xanthus) (UniProt P43500); assay: as above
[5] = target: the molecule itself; assay: as above
[6] = target: T1, FrzCD (EMSA/SEC-MALS) (Myxococcus xanthus, UniProt P43500 1-417); assay: EMSA; EMSA: 50 mM Tris pH 7.4, 50 mM NaCl, 1 mM DTT, 10% glycerol, 25 C, 30 min, 0.5-2 uM DNA; BLI: 10 mM Tris pH 7.4, 150 mM NaCl, 25 C, 5 nM DNA; settings: protein: recombinant, tags: C-terminal His6 (pHis17), chain copies: 2
T1 sequence: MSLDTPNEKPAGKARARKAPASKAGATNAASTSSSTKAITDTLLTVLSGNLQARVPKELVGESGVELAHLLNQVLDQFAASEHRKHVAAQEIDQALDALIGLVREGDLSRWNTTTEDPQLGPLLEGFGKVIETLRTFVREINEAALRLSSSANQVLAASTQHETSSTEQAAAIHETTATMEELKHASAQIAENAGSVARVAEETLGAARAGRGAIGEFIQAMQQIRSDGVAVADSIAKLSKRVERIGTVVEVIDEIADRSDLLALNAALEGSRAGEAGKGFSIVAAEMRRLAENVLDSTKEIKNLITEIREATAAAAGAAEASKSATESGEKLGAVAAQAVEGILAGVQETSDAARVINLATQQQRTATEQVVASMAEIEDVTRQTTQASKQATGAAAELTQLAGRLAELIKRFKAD

[7] = target: T2, His6-FrzCD (BLI) (Myxococcus xanthus, UniProt P43500 1-417); assay: BLI; EMSA: 50 mM Tris pH 7.4, 50 mM NaCl, 1 mM DTT, 10% glycerol, 25 C, 30 min, 0.5-2 uM DNA; BLI: 10 mM Tris pH 7.4, 150 mM NaCl, 25 C, 5 nM DNA; settings: protein: recombinant; tags: N-terminal His6 (pETphos); label: 5' biotin on forward strand; blunt
T2 sequence: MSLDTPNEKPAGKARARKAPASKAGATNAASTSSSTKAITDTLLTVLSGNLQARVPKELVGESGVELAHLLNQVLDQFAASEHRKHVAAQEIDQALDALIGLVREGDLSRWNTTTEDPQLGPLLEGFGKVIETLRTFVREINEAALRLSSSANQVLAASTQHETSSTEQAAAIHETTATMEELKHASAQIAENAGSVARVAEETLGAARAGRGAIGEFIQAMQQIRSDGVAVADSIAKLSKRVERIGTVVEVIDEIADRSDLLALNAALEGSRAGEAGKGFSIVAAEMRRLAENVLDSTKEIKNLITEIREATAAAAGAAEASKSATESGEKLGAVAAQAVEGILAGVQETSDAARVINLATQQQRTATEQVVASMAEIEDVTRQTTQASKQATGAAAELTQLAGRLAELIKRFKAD

[8] = target: T3, His6-FrzCDΔH2 (BLI) (Myxococcus xanthus, UniProt P43500 1-417, del84-136); assay: as above; settings: protein: recombinant; tags: N-terminal His6 (pETphos); label: 5' biotin on forward strand; blunt
T3 sequence: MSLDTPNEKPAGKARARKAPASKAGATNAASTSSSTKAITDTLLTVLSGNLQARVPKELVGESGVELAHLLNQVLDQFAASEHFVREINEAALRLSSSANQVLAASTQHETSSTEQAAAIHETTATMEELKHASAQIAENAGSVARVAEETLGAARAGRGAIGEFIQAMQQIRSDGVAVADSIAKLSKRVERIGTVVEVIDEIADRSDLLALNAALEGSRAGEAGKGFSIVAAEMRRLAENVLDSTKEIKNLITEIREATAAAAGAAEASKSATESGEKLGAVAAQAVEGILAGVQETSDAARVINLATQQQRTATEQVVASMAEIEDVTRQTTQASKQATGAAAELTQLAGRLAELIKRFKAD

[9] = target: T4, His6-FrzCDΔH1ΔH2 (BLI) (Myxococcus xanthus, UniProt P43500 1-417, del31-136); assay: as above; settings: protein: recombinant; tags: N-terminal His6 (pETphos); label: 5' biotin on forward strand; blunt
T4 sequence: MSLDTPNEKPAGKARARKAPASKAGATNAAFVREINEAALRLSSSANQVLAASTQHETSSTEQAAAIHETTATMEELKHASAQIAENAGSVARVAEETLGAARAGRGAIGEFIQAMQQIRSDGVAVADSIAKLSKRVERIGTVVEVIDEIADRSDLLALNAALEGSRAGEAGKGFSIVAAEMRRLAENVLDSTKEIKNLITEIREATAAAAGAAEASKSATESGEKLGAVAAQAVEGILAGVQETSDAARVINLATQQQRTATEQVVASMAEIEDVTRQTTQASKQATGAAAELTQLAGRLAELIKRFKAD

[10] = target: T5, FrzCDΔH1 (EMSA) (Myxococcus xanthus, UniProt P43500 1-417, del32-83); assay: EMSA; EMSA: 50 mM Tris pH 7.4, 50 mM NaCl, 1 mM DTT, 10% glycerol, 25 C, 30 min, 0.5-2 uM DNA; BLI: 10 mM Tris pH 7.4, 150 mM NaCl, 25 C, 5 nM DNA; settings: protein: recombinant; tags: C-terminal His6 (pHis17); blunt
T5 sequence: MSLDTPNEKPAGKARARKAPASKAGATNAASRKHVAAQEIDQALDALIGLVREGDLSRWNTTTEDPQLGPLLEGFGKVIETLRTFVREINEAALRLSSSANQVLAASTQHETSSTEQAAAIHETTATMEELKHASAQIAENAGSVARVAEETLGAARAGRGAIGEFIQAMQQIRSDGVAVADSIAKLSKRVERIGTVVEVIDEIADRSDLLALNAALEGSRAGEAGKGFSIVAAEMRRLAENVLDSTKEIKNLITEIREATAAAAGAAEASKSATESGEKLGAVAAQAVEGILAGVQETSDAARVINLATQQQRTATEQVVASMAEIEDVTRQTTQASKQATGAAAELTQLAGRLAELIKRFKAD

[11] = target: T6, FrzCDΔH2 (EMSA/SEC-MALS) (Myxococcus xanthus, UniProt P43500 1-417, del84-136); assay: as above; settings: protein: recombinant; tags: C-terminal His6 (pHis17); blunt
T6 sequence: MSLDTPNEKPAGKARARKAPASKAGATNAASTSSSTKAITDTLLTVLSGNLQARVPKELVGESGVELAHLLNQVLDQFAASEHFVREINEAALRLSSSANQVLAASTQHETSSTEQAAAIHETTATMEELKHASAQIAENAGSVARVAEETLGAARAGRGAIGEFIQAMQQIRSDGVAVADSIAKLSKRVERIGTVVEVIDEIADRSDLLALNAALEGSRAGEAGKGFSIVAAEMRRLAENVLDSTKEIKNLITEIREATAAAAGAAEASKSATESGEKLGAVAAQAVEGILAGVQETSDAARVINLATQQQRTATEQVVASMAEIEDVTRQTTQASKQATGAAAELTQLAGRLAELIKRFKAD

[12] = target: T7, FrzCDΔH1ΔH2 (EMSA) (Myxococcus xanthus, UniProt P43500 1-417, del32-136); assay: as above; settings: protein: recombinant; tags: C-terminal His6 (pHis17); blunt
T7 sequence: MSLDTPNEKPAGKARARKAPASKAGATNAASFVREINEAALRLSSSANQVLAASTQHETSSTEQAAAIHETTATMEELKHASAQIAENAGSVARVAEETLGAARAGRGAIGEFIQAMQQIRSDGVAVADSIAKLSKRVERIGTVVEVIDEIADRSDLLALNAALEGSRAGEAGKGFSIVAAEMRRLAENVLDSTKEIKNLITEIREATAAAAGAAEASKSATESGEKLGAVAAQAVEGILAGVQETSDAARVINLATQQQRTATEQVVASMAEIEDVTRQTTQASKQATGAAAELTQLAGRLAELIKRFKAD

[13] = target: T1, FrzCD (EMSA/SEC-MALS); assay: SEC-MALS; high-order oligomers at 200 uM protein, 100 uM DNA; EMSA: 50 mM Tris pH 7.4, 50 mM NaCl, 1 mM DTT, 10% glycerol, 25 C, 30 min, 0.5-2 uM DNA; BLI: 10 mM Tris pH 7.4, 150 mM NaCl, 25 C, 5 nM DNA; settings: protein: recombinant; tags: C-terminal His6 (pHis17); chain copies: 2; blunt

stoichiometry N [1]: 4
Molecule: FrzCD^ΔH1ΔH2 (from UniProt P43500 1-417) (receptor)

stoichiometry N [2]: 2 | stoichiometry N [3]: 2
Molecule: FrzCD^ΔMA (from UniProt P43500 1-136) (domain or fragment)

stoichiometry N [4]: 4
Molecule: FrzCD^ΔH2 (from UniProt P43500 1-417) (receptor)

B1: FrzCD^ΔH1 (receptor, Myxococcus xanthus, UniProt P43500 1-417, looked up)
chain: MSLDTPNEKPAGKARARKAPASKAGATNAARKHVAAQEIDQALDALIGLVREGDLSRWNTTTEDPQLGPLLEGFGKVIETLRTFVREINEAALRLSSSANQVLAASTQHETSSTEQAAAIHETTATMEELKHASAQIAENAGSVARVAEETLGAARAGRGAIGEFIQAMQQIRSDGVAVADSIAKLSKRVERIGTVVEVIDEIADRSDLLALNAALEGSRAGEAGKGFSIVAAEMRRLAENVLDSTKEIKNLITEIREATAAAAGAAEASKSATESGEKLGAVAAQAVEGILAGVQETSDAARVINLATQQQRTATEQVVASMAEIEDVTRQTTQASKQATGAAAELTQLAGRLAELIKRFKAD
notes: FrzCD of Myxococcus xanthus with the HAMP1 domain (H1, residues 31 to 83) deleted; The limits of the deletion are the printed limits of the domain; The tag is that of the pHis17 constructs; source: E. coli (BL21-AI, BL21-DE3 or C43), purified (HisTrap, ion exchange)
stoichiometry N [5]: 4

B2: 8 bp DNA (dsDNA)
DNA 1: ACTGCAGT
DNA 2: ACTGCAGT
binding result ([6]; blunt): binds

B3: 178 bp DNA (dsDNA)
DNA 1: GGATCGCATCTGCCTACATCCCCAGCTCCCGGTCGGTCCGCTCGGAACCTAGCCCGGGTCAAAGACCCGGGGTCTATGTTGACCCATTTGGTGGGGATGGGTCTAATTGGACCTGGCGTTTTTTCGCGCCATGGAAATGTCAAGGCCCGTGATTCCAGACTGTTGGGCAGGGAGTT
DNA 2: AACTCCCTGCCCAACAGTCTGGAATCACGGGCCTTGACATTTCCATGGCGCGAAAAAACGCCAGGTCCAATTAGACCCATCCCCACCAAATGGGTCAACATAGACCCCGGGTCTTTGACCCGGGCTAGGTTCCGAGCGGACCGACCGGGAGCTGGGGATGTAGGCAGATGCGATCC
Kd [7]: 650 nM | Kd [8]: 1730 nM | Kd [9]: 210 nM

Molecule: AAAAAAAA (ssDNA) [8-base poly-A ssDNA]
binding result [6]: binds

B4: 35 bp DNA (dsDNA)
DNA 1: GTCACCTGCTCTAGCTAATAGACTGAGCCGAGGTG
DNA 2: CACCTCGGCTCAGTCTATTAGCTAGAGCAGGTGAC
binding result [10]: binds | binding result [11]: binds | binding result [12]: binds | binding result [13]: binds

B5: FrzCD full-length (receptor, Myxococcus xanthus, UniProt P43500 1-417, looked up)
chain: MSLDTPNEKPAGKARARKAPASKAGATNAASTSSSTKAITDTLLTVLSGNLQARVPKELVGESGVELAHLLNQVLDQFAASEHRKHVAAQEIDQALDALIGLVREGDLSRWNTTTEDPQLGPLLEGFGKVIETLRTFVREINEAALRLSSSANQVLAASTQHETSSTEQAAAIHETTATMEELKHASAQIAENAGSVARVAEETLGAARAGRGAIGEFIQAMQQIRSDGVAVADSIAKLSKRVERIGTVVEVIDEIADRSDLLALNAALEGSRAGEAGKGFSIVAAEMRRLAENVLDSTKEIKNLITEIREATAAAAGAAEASKSATESGEKLGAVAAQAVEGILAGVQETSDAARVINLATQQQRTATEQVVASMAEIEDVTRQTTQASKQATGAAAELTQLAGRLAELIKRFKAD
notes: FrzCD, cytoplasmic methyl-accepting chemotaxis protein of Myxococcus xanthus; DB 1-30, H1 31-83, H2 84-136, MA 137-417; The C-terminal hexa-histidine tag is that of the pHis17 constructs; also called His6-FrzCD; wild type; source: E. coli (BL21-AI, BL21-DE3 or C43), purified (HisTrap, ion exchange)
stoichiometry N [5]: 2
